Experiment [1] addresses F-actin polymerised from purified G-actin (Cytoskeleton APHL99-A) (UniProt P60709). As to the kind of experiment: co-sedimentation; supernatant-depletion method, equilibrium binding to ADP-F-actin (filaments from ADP-G-actin made with 20 U/mL hexokinase and 1 mM glucose); GST-ABD left in the supernatant by anti-GST immunoblot and densitometry. (Immunoblotting shows a protein as a band on a membrane.)

For experiment [2] the target is unchanged. As to the kind of experiment: co-sedimentation; supernatant-depletion method, equilibrium binding to ATP/ADP-Pi-F-actin (filaments from ATP-G-actin); GST-ABD left in the supernatant by anti-GST immunoblot and densitometry; room temperature.
For experiment [3] the target is unchanged. Briefly: co-sedimentation; high-speed F-actin co-sedimentation; F-actin polymerised from Mg-ATP-G-actin (50 mM KCl, 1 mM MgCl2, 1 mM ATP); 30 min at room temperature, Airfuge ~100,000 x g 30 min; supernatant and pellet on SDS-PAGE, Coomassie Blue or silver stain.

Regarding “GST-TEM4 81-135 (GST-ABD) (from UniProt Q96PE2 81-135) (domain or fragment)”, the values for the Kd in experiment [1] and in experiment [2] were 4700 nM and 53 nM, respectively. Further, the stoichiometry N (commonly the number of molecules, sites or subunits per partner or assembly) in experiment [3] (scale: actin per GST-ABD) was 1.4; in experiment [3] (scale: ratio GST-ABD to actin, after correction for the 15-20% GST cleavage product), 1.

(Values after publication PMC3404065.)
